Data from patent US20050064507A1, “Determining kinase specificity” (priority 2003, published 2005).

Legend:
PKC-epsilon = target: T1, PKC-epsilon (Homo sapiens, UniProt Q02156); assay: In vitro kinase assay: peptide phosphorylation by PKC-epsilon; format: biochemical; conditions: for phosphorylation by PKC epsilon: peptide concentration 1 uM; for PKC-epsilon phosphorylation: normalized to best substrate
T1 construct: purchased Calbiochem
T1 sequence (Q02156 1-737): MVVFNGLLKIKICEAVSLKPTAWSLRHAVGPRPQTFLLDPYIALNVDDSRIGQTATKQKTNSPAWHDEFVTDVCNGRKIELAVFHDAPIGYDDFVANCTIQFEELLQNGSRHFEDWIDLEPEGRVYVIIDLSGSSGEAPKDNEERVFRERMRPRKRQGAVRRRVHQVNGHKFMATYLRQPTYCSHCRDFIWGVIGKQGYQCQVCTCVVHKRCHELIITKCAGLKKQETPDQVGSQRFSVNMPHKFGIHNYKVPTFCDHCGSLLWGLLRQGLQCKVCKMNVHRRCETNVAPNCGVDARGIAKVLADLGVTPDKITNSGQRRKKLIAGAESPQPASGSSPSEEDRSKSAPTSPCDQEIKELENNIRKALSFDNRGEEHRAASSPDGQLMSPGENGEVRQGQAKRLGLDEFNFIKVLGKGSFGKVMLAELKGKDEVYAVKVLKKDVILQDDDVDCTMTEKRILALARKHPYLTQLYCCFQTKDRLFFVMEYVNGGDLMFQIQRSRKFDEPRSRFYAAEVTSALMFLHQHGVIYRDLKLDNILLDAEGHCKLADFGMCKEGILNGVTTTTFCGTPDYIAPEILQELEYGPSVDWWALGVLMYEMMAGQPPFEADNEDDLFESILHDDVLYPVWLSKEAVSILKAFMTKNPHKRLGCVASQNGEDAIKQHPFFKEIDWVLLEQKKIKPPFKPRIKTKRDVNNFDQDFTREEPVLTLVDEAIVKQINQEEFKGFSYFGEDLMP
Experimental: Catalytically active preparations of the kinases of interest were either purchased or prepared. Purchased and tested active kinase preparations including the following: PKC-alpha, PKC-delta, PKC-epsilon, PKC-zeta, PKC-mu, PKA, PKG from Calbiochem, ROK alpha/ROCK-II, active from Upstate Biotechnology, and AKT1 from Panvera.
(§1) The conditions of the kinase assay and the amount of active kinase used varied with the kinase and with the accuracy needed. For a typical experiment, 5-20 ng of kinase was used per well and each peptide pool was assayed in duplicate wells. Note that the absolute amount of kinase used was not usually a critical parameter, because the desired information related to specificity of the kinase not its absolute activity, and robustness of the assay depends on comparisons of the same amount of kinase on different peptides. The combination of kinase concentration and assay duration was modified to assure that the stoichiometry of peptide phosphorylation never exceeded 5%. The choice of kinase buffer depended on the kinase being analyzed. For studies of PKC, 100 mM HEPES, 0.05% Triton-X100, 1 mM CaCl2, 20 mM MgCl2, 0.2 mg/ml phosphatidyl serine (Avanti Polar Lipids), PMA 100 ng/ml was typically used. The lipid stock was prepared by transferring 3 mg phosphatidyl serine into iced mixture of 450 μl water plus 50 μl of 10% Triton-X100, sonicating 10 times on ice for 1 sec each.
(§2) The kinase reaction mixture was assembled by sequential addition to a tube held on ice of: 5 μl peptide (100 μM for final concentration of 10 μM), 15 μl of kinase (typically 5 ng/well, in appropriate kinase buffer), 30 μl of ATP (1 uCi/well of ^32P-gamma ATP in a stock of 167 μM cold ATP in the kinase buffer; for final concentration for 100 μM ATP). The mixture was rapidly warmed to desired reaction temperature (30° C. for PKC) and incubated for the desired duration (usually 10 minutes). The kinase assay was terminated by transfer to 4° C. water batch, and rapid addition of an equal volume (50 μl) of stop solution [0.1M ATP+0.1M EDTA in water, pH 8].
(§3) The peptides were then captured from the reaction mixture by transfer to a Reacti-Bind Streptavidin High Binding Capacity Coated Plates (HBC) (Pierce Biotechnology) as follows. The HBC plates were pre-rinsed three times with PBS/Tween PBS/Tween20 0.05% (PBS/Tween). Part of all of the reaction mixture was then transferred wells of a HBC plate pre-filled with 90 μl of phosphate-buffered saline (PBS); typically each aliquots of each phosphorylation reaction were transferred to duplicate HBC plates to assure accuracy by additional replication
For kinase assays done at the standard peptide concentration of 10 μM, the peptide concentration in the reaction mixture becomes 5 μM after addition of the stop solution; consequently 10 μl of the reaction (50 pMoles of peptide) was transferred to the HBC plate. More generally, the amount of reaction mixture transferred was estimated to be about 50 pMoles of peptide. […] The HBC plates were incubated for 0.5 to 1.5 hr at room temperature for complete binding of biotinylated peptides to plate-bound streptavidin. The HBC plates were then washed extensively with PBS/Tween. Five washes were done routinely and additional wash steps were added if the wash solution removed from the plate had measurable radioactivity as detected using a Geiger counter. This step is essential to obtaining a good the signal to noise ratio because the fraction of radioactivity incorporated in the peptides was a tiny fraction of the total in the reaction mixture. The wells were air-dried. A volume of 40-50 μl of microScint-20 (Packard Instruments) was added to each well. The plates were covered with stick-on film sheet. Radioactive emissions were measured in a TopCount NXT Microplate Scintillation and Luminescence Counter (Packard Instruments). Typically samples were counted for 5 minutes (or more) to improve the signal to noise ratio when counts were low. […]

PKC = assay: In vitro phosphorylation by PKC (average of isoforms alpha, epsilon, delta, theta); format: biochemical; conditions: for average (phosphorylation by PKC-theta, -delta, -epsilon, -alpha): average over PKC-theta, -epsilon and -alpha at 10 and 1 uM peptide, relative to best substrate; for PKC average: average of PKC-alpha, -epsilon, -theta, normalized to best substrate
Experimental: as §1, §2, §3
For kinase assays done at the standard peptide concentration of 10 μM, the peptide concentration in the reaction mixture becomes 5 μM after addition of the stop solution; consequently 10 μl of the reaction (50 pMoles of peptide) was transferred to the HBC plate. More generally, the amount of reaction mixture transferred was estimated to be about 50 pMoles of peptide. […] The HBC plates were incubated for 0.5 to 1.5 hr at room temperature for complete binding of biotinylated peptides to plate-bound streptavidin. The HBC plates were then washed extensively with PBS/Tween. Five washes were done routinely and additional wash steps were added if the wash solution removed from the plate had measurable radioactivity as detected using a Geiger counter. This step is essential to obtaining a good the signal to noise ratio because the fraction of radioactivity incorporated in the peptides was a tiny fraction of the total in the reaction mixture. The wells were air-dried. A volume of 40-50 μl of microScint-20 (Packard Instruments) was added to each well. The plates were covered with stick-on film sheet. Radioactive emissions were measured in a TopCount NXT Microplate Scintillation and Luminescence Counter (Packard Instruments). Typically samples were counted for 5 minutes (or more) to improve the signal to noise ratio when counts were low.
Many peptides that are good substrates for PKC enzymes were identified using the methods of the invention. For example, Tables 4 and 5 provide a listing of peptides identified as potentially useful kinase substrates. […]

Substance | phosphorylation by PKC epsilon (PKC-epsilon) | average (phosphorylation by PKC-theta, -delta, -epsilon, -alpha) (PKC) | PKC-epsilon phosphorylation (PKC-epsilon) [%] | PKC average (PKC) [%]
148 (RELEQLKAEYLERRASRRRA) [compound 148] | 33 | 26 | – | –
97 (KKRSSKKEASMKKVVRP) [compound 97] | – | – | 16 | 28
151 (PQNSLKASNRKKKRTSFKRK) [compound 151] | 24 | 24 | – | –
153 (TYLLPDKSRQGKRKTSIKRD) [compound 153] | 24 | 23 | – | –
152 (DLIEGRKGAQIVKRASLKRG) [compound 152] | 25 | 23 | – | –
87 (RQGKRKTSIKRDTVNPL) [compound 87] | – | – | 31 | 47
149 (RVVQSVKHTKRKSSTVMK) [compound 149] | 27 | 25 | – | –
150 (VDPFYEMLAARKKRISVKKK) [compound 150] | 20 | 24 | – | –
91 (VHYTSKDTLRKRHYWR) [compound 91] | – | – | 49 | 40
88 (KKPFKLSGLSFKRNRKE) [compound 88] | – | – | 44 | 43
81 (KRERKTSSKSSVRKRR) [compound 81] | – | – | 59 | 56
98 (AGPLRKSSLKKGGRL) [compound 98] | – | – | 34 | 27
